Experiments:
[1] = target: HLA-A*1101 (Homo sapiens, UniProt P04439, A114D/D185E/E176A/F33Y/L180Q/S129P/T187R); assay: purified HLA class I binding assay, A*1101; conditions: for A*1101 (HIV A11 Motif Peptides with Binding Information): binding value to purified HLA-A*1101 in Table XVII; for A*1101 binding: HIV A11 motif peptides (GAG)
[2] = target: T1, HLA-B*0702 (Homo sapiens, UniProt P01889); assay: purified HLA class I binding assay, B*0702; conditions: for B*0702 binding (HIV B07 Super Motif Peptides with Binding Information): purified HLA-B*0702, binding value without unit; for B*0702 (binding information): HIV B07 supermotif peptides, binding value for purified HLA-B*0702, unit not given
T1 construct: endogenous in cells; host or cells: GM3107

[3] = target: T2, HLA-A*0301 (Homo sapiens, UniProt P04439); assay: purified HLA class I binding assay, A*0301; conditions: for A*0301 binding information: HIV A03 supermotif peptides; for A0301 (binding information): HIV A03 motif peptides; for A0301 (binding information) / A0301 (binding information, HIV A03 motif peptides): Table XVI
T2 construct: endogenous in cells; host or cells: GM3107

[4] = target: HLA-A*0201 (Homo sapiens, UniProt P04439, D140Y/D185E/D98H/E176V/E277Q/G131W/G231S/I119V/I121R/I166T/I218V/L300P/L318F/N151K/N90K/P208A/P217A/Q86G/Q94H/R138H/R169H/T345S); assay: purified HLA class I binding assay, A*0201; conditions: Table VIII, unit not given
[5] = target: T3, HLA-DRB1*0701 (DR7) (Homo sapiens, UniProt P01903+P01911, A100R/A102G/A103Q/D57E/D86V/E43K/F76Y/K127E/L162R/M171V/P40G/Q125H/Q99D/R33Q/R42Y/R54Q/S133A/S66F/T210M/V115G/Y107V/Y59L/Y89S); assay: biochemical; format: binding
T3 construct: endogenous in cells; host or cells: Pitout

[6] = binding value to purified HLA-A*0301, unit not given
[7] = HIV A02 Super Motif Peptides with Binding Information
[8] = HIV POL-derived peptides, unit not given
[9] = Table XVII, HIV A11 motif peptides, binding value A*1101, unit not given
[10] = HIV POL-derived A03 motif peptides, binding value for purified HLA-A*0301, unit not given

## AANREIKLGK
[1]; unit not given
  A*1101 (HIV A11 Motif Peptides with Binding Information): 0.0016

## ANRIETKLGK
[1]; unit not given
  A*1101 (HIV A11 Motif Peptides with Binding Information): 0.0001

## APTKAKRRVV
[2]
  B*0702 binding (HIV B07 Super Motif Peptides with Binding Information): 0.1200

## ATLYCVIIQR
[3]; Table IX, unit not given
  A*0301 binding information: 0.0150
[3]; [6]
  A0301 (HIV A03 Motif Peptides with Binding Information): 0.0150
[1]; HIV A03 supermotif peptides, Table IX, unit not given
  A*1101 (binding information): 0.7100
[1]; Table XVII, unit not given
  A*1101 binding: 0.7100

## ATWIPCWEFV
[4]; HIV A02 supermotif peptides
  A*0201 (binding information): 0.0013

## AVDLSIIFLK
[3]; [6]
  A0301 (binding information): 0.0740
[1]; HIV A11 motif peptides, Table XVII, unit not given
  A*1101 (binding information): 1.1000

## CVKLTPLCV
[4]; [7]
  A*0201 (binding information): 0.0002

## CVKLTPLCVT
[4]; HIV A02 super motif peptides
  A*0201 (binding information): 0.0001

## DPEIVMIISF
[2]
  B*0702 binding (HIV B07 Super Motif Peptides with Binding Information): 0.0001

## DTEVIINVWA
[4]; [7]
  A*0201 (binding information): 0.0001

## DTEYIINVWAT
[4]; HIV A02 super motif peptides
  A*0201 (binding information): 0.0001

## DVKQLTEAVQ
[3]; [8]
  A0301 (binding information, HIV A03 motif peptides): 0.0048
[1]; unit not given
  A*1101 (HIV A11 Motif Peptides with Binding Information): 0.0240

## EILKEPVIIGV
[4]; HIV A02 supermotif peptides
  A*0201 (binding information): 0.0007

## ELQAIIILAL
[4]; HIV A02 super motif peptides
  A*0201 (binding information): 0.0001

## EPFKNLKTGK
[2]
  B*0702 (binding information): 0.0001

## EPFRDYVDRP
[2]
  B*0702 binding (HIV B07 Super Motif Peptides with Binding Information): 0.00012

## EPFREYVIIRF
[2]
  B*0702 binding (HIV B07 Super Motif Peptides with Binding Information): 0.0001

## EPIPIIIYCA
[2]
  B*0702 binding (HIV B07 Super Motif Peptides with Binding Information): 0.0001

## EPIVGAEIP
[2]
  B*0702 (binding information): 0.0001

## EPPFLWMGYE
[2]
  B*0702 (binding information): 0.0001

## EPVDPRLEPW
[2]
  B*0702 (binding information): 0.0001

## EPVIIGVYY
[2]
  B*0702 binding (HIV B07 Super Motif Peptides with Binding Information): 0.0001

## EVIINVWATIIA
[4]; HIV A02 super motif peptides
  A*0201 (binding information): 0.0001

## FIHNFKRKG
[5]
  DR7 binding information: 0.0048

## FLGKIWPSIIK
[3]; binding value unit not given
  A0301 (binding information): 0.0200
[1]; Table XVII, unit not given
  A*1101 binding: 0.0013

## FVNIPPLVK
[1]; [9]
  A*1101 (binding information): 0.0660

## GIIQAQVDK
[3]; [8]
  A0301 (binding information, HIV A03 motif peptides): 0.0009

## GIPIIPAGLK
[1]; [9]
  A*1101 (binding information): 0.0650

## GIPIIPAGLKK
[3]; [10]
  A0301 (HIV A03 Motif Peptides with Binding Information): 0.0110
[1]; [9]
  A*1101 (binding information): 0.1700

## GIRYQYNYL
[4]; HIV A02 super motif peptides
  A*0201 (binding information): 0.0001

## GPAATLEEMM
[2]
  B*0702 binding (HIV B07 Super Motif Peptides with Binding Information): 0.0020

## GPGIIKARV
[2]
  B*0702 binding (HIV B07 Super Motif Peptides with Binding Information): 0.0002

## GPGIIKARVLA
[2]
  B*0702 binding (HIV B07 Super Motif Peptides with Binding Information): 0.0002

## GPKVKQWPL
[2]
  B*0702 (binding information): 0.0150

## HPAGLKKKKS
[2]
  B*0702 (binding information): 0.0001

## HPVIIAGPI
[2]
  B*0702 binding (HIV B07 Super Motif Peptides with Binding Information): 0.0012

## IIGVYYDPSK
[1]; [9]
  A*1101 (binding information): 0.0001

## IILALQDSGL
[4]; HIV A02 super motif peptides
  A*0201 (binding information): 0.0005

## IILKTAVQMA
[4]; HIV A02 super motif peptides
  A*0201 (binding information): 0.0033
[3]; [10]
  A0301 (HIV A03 Motif Peptides with Binding Information): 0.0003

## IILKTAVQMAV
[4]; HIV A02 supermotif peptides
  A*0201 (binding information): 0.0005

## IIPDKWTVQPI
[2]
  B*0702 (binding information): 0.0012

## IIPGSQPKTA
[2]
  B*0702 (binding information): 0.0007

## IIPRISSEVHI
[2]
  B*0702 (binding information): 0.0330

## IIPVIIAGPIA
[2]
  B*0702 binding (HIV B07 Super Motif Peptides with Binding Information): 0.0590

## IIVASGYIEA
[3]; [10]
  A0301 (HIV A03 Motif Peptides with Binding Information): 0.0003

## ILKEPVIIGV
[4]; HIV A02 super motif peptides
  A*0201 (binding information): 0.0055

## ILQQLLFIIIF
[3]; binding value for HLA-A*0301, unit not given
  A0301 (binding information, HIV A03 motif peptides): 0.0130

## IPIIIYCAPA
[2]
  B*0702 binding (HIV B07 Super Motif Peptides with Binding Information): 0.0130

## IPMFSALSIEGA
[2]
  B*0702 binding (HIV B07 Super Motif Peptides with Binding Information): 0.0004

## IPVGEIYKRW
[2]
  B*0702 binding (HIV B07 Super Motif Peptides with Binding Information): 0.0002

## ISPILTVPVK
[1]; [9]
  A*1101 (binding information): 0.0310

## IVASCDKCQL
[4]; HIV A02 supermotif peptides
  A*0201 (binding information): 0.0006

## IVASCDKCQLK
[3]; binding value, no unit given
  A*0301 binding information: 0.0970
[3]; [10]
  A0301 (HIV A03 Motif Peptides with Binding Information): 0.0970
[1]; HIV A03 supermotif peptides, binding value, no unit given
  A*1101 (binding information): 0.1000
[1]; [9]
  A*1101 (binding information): 0.1000

## KAYDTEVIINV
[4]; HIV A02 super motif peptides
  A*0201 (binding information): 0.0013

## KIEELRQIIL
[4]; HIV A02 super motif peptides
  A*0201 (binding information): 0.0001

## KIEELRQIILL
[4]; HIV A02 supermotif peptides
  A*0201 (binding information): 0.0002
